Assay results: patent US20240207380A1, “NOVEL PEPTIDE TARGETING DENDRITIC CELLS, AND COMPOSITION FOR TREATING CANCER COMPRISING SAME” (INDUSTRY FOUNDATION OF CHONNAM NATIONAL UNIVERSITY, priority 2021, published 2024)
Entries after “also recorded” stand apart in the source; their conditions may differ.

Tests used:
[1] = biological target: T1, TLR5 (Homo sapiens, UniProt O60602); type: cell-based; settings: HEK-Blue hTLR5 cells
T1 construct: host or cells: HEK-Blue hTLR5 cells (HEK293-derived reporter line, own knowledge: stably transfected with the human TLR5 gene and an NF-kB-inducible SEAP reporter)
T1 sequence (O60602 21-858): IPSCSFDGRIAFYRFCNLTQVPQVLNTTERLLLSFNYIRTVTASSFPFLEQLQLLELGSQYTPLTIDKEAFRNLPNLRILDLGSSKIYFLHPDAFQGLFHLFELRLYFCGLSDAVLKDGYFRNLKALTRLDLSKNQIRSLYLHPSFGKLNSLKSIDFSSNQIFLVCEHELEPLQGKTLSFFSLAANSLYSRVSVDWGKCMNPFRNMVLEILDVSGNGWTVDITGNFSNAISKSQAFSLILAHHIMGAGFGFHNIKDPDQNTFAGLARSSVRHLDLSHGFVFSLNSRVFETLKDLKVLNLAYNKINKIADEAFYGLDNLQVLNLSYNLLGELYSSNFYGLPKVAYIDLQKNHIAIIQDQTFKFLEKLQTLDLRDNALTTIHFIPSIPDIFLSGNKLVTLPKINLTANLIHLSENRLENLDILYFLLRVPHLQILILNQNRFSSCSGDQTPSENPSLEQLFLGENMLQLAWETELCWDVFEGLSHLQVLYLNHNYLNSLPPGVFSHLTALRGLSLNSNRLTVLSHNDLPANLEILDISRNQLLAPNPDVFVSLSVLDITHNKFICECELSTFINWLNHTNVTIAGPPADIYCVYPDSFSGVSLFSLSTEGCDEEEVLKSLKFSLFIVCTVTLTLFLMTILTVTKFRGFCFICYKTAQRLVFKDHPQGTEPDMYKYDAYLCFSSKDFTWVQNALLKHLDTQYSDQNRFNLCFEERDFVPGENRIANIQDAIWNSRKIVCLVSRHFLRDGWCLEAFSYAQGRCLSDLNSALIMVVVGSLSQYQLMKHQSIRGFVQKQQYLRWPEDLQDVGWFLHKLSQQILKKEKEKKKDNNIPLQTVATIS
Experimental: Also, the EC50 was calculated using triplicate OD 620 nm values for each protein concentration over a wide range of protein concentrations (0.0375 nM-19.29 nM at the AAT Bioquest website).

[2] = tested on: Bone marrow-derived dendritic cells (BMDCs); experiment: Cellular uptake of EF and DEF in BMDCs (flow cytometry); type: cell-based, C57BL/6 mice; settings: 2 hours, anti-FlaB staining, FACS gated on CD11c+
Experimental: Cells treated with PBS alone were used as a negative control. After incubation, the cells were washed twice with cold 1×PBS containing 3% FBS and then stained with anti-mouse CD11c^+ antibody (eBioscience, Clone: N418, 25-0114-82) for 1 hour at 4° C. and fixed with 4% paraformaldehyde (T&I, BPP-9004) for 10 minutes at room temperature. The cells were permeabilized using a permeabilization kit according to the manufacturer's instructions (Invitrogen, 00-8333-56) and stained with anti-FlaB antibodies, followed by FACS analysis by gating upon the CD11c^+ population. The results are depicted in FIG. 14.

[3] = tested on: BMDCs or RAW264.7 cells; experiment: Intracellular distribution of EF and DEF by confocal microscopy; type: cell-based; settings: 20 μg/ml, 2 hours
Experimental: After incubation, the cells were harvested, washed, fixed with 100% methanol for 15 minutes at room temperature, and stained with anti-mouse CD11c^+ APC-conjugated antibody and DAPI, a nuclear stain, for 1 hour at room temperature. After two washes with cold 1×PBS, the intercellular distributions of the peptides within the dendritic cells (CD11c^+) were determined by confocal microscopy (LSM800).

[4] = In vivo distribution of FNR675-labeled peptides in draining inguinal lymph nodes; set-up: species or system  mice; settings: subcutaneous
Experimental: Next, the conjugated proteins were quantitatively determined from the calibration curve of the FNR675-NHS ester using a UV-Vis spectrophotometer (UV-2700, Shimadzu, Japan).
The fluorescence signals in the draining lymph nodes were determined and are depicted in FIG. 16. In addition, six hours after injection, the draining inguinal LN (iLN) cells were prepared, and then in vivo DC-targeting was determined by FACS analysis gating upon CD11c^+ cell population, and the results are depicted in FIG. 17.

[5] = tested on: TC-1 cells; experiment: Antitumor efficacy of peptides in TC-1 tumor-bearing mice (survival, tumor volume); type: in vivo, C57BL/6 mice
Experimental: Female SPF C57BL/6 mice 7 to 8 weeks old were purchased from ORIENT (Seongnam-si, Gyeonggi-do, Korea). TC-1 cells were cultured in RPMI 1640 medium supplemented with 10% heat-inactivated FIBS, 100 units/ml penicillin, and 100 μg/ml streptomycin at 37° C. under 5% CO2. Tumors were established in mice by subcutaneous injection of 5×10^4 TC-1 cells in 100 μl of PBS into the right mid-flank of each mouse. […] Tumor growth was monitored every three days. The tumor volume was calculated with formula V=(tumor length)×(tumor width)×(tumor height)/2.
The tumor-bearing mice were administered the all-in-one vaccine of the present disclosure as in Example 5 and measured for survival rate and tumor volume in the same manner. For a positive control, a group of mice was immunized with HPV16 E7 CTL peptide (amino acid 49-57: […]), known as a cytotoxic T lymphocyte (CTL)-inducing peptide.

[6] = tested on: Bone marrow-derived dendritic cells (BMDCs); experiment: Antigen-presenting cell activation (CD80 and CD86 on BMDC surface); type: cell-based, C57BL/6 mice; settings: 0.5 μg/ml, 24 hours
Description: The cells were stained on ice with fluorophore-labeled antibodies before flow cytometry analysis.

[7] = tested on: CTL epitope-specific tetramer+ CD8+ cells; experiment: Antigen-specific T cell immune response (E7 tetramer+ CD8+ cells in peripheral blood); type: in vivo, mice
Experimental: The peptides of the present disclosure as in Example 5 were administered to mice with or without tumors and peripheral blood was collected therefrom. After removal of RBC by RBC lysis buffer, the blood was stained with the tetramer antibody (PE-conjugated HPV16 H-2Db-[…], TB-5008-1, MBL) and CD8 antibody and analyzed by flow cytometry.

[8] = tested on: IFN-γ-producing cells of spleen (SPL) or tumor-draining lymph nodes (TDLNs); experiment: CTL peptide-specific immune response (IFN-γ ELISpot); type: in vivo, mice
Experimental: Single-cell suspensions from the spleen (SPL) or tumor-draining lymph nodes (TDLNs) were prepared by administering the peptides of the present disclosure to mice with or without tumors in the same manner as in Example 5. A total of 1×10^6 SPL or 2.5×10^5 TDLNs cells were seeded into 96-well Filtration ELISpot plates (Merck, HAMAS4510) and stimulated with 1 μg/ml E7 CTL peptide (amino acids 49-57: […]). Cells stimulated with 10 ng/ml concanavalin A were used as a positive control. After two days of culture of SPL cells or five days of culture of TDLN cells, IFN-γ-producing cells were detected by using the mouse IFN-γ ELISpot Set (BD Bioscience, 551083) according to the manufacturer's instructions. IFN-γ-producing cells were analyzed using a CTL-ImmunoSpot Analyzer and ImmunoSpot Professional Software version 5.0 (Cellular Technology, Shaker Heights, OH, USA).

[9] = tested on: TC-1 cells; experiment: Antitumor effect in TLR5-knockout TC-1 tumor-bearing mice; type: in vivo
Description: (§1) Wild-type (WT), TLR5-knockout (TLR5^−/−) and NLRC4-knockout (NLRC4^−/−) mouse groups were implanted with TC-1 cells in the right mid-flank. […] The results are depicted in FIG. 25.

[10] = tested on: TC-1 cells; experiment: Antitumor effect in NLRC4-knockout TC-1 tumor-bearing mice; type: in vivo; settings: 20 μg
Description: as §1

[11] = tested on: CD8^+ T cells; experiment: Peptide-mediated CD8+ T cell activation (CFSE dilution, coculture with pulsed BMDCs); type: cell-based, mice
Experimental: CD8^+ splenocytes from TC-1 tumor-bearing mice were prepared using the MagniSort™ Mouse CD8 T Cell Enrichment kit (Invitrogen, 8804-6822) according to the manufacturer's instructions, and were labeled with 5 μM CFSE. EF- or DEF-pulsed BMDCs were cocultured with CFSE-stained CD8^+ cells at a ratio of 1:5 (BMDC:CD8^+ T cells) for 3 days in RPMI 1640 medium supplemented with 10% fetal bovine serum (HyClone, Logan, UT), 1% penicillin/streptomycin (Life Technologies, Grand Island, NY), and 50 μM 2-mercaptoethanol (Sigma, 516732). CD8^+ T cell proliferation was assessed by CFSE dilution using flow cytometry.

[12] = versus E7 Pep+F positive control

B1: DEF (protein)
chain: MRFFCLGPLGFTKVDIDGPAGQAEPDRAHYNIVTFCCKCDSTLRLCVQSTHVDIRTLEDLLMGTLGIVCPICSQKPEFIDGPAGQAEPDRAHYNIVTFCCKCDSTLRLCVQSTHVDIRTLEDLLMGTLGIVCPICSQKPVDIDGPAGQAEPDRAHYNIVTFCCKCDSTLRLCVQSTHVDIRTLEDLLMGTLGIVCPICSQKPVDIDGPAGQAEPDRAHYNIVTFCCKCDSTLRLCVQSTHVDIRTLEDLLMGTLGIVCPICSQKPKLMAVNVNTNVAAMTAQRYLNNANSAQQTSMERLSSGFKINSAKDDAAGLQISNRLNVQSRGLDVAVRNANDGISIAQTAEGAMNETTNILQRMRDLSLQSANGSNSKSERVAIQEEVTALNDELNRIAETTSFGGNKLLNGTYGTKAMQIGADNGEAVMLSLKDMRSDNVMMGGVSYQAEEGKDKNWNVAAGDNDLTIALTDSFGNEQEIEINAKAGDDIEELATYINGQTDLVKASVGEGGKLQIFAGNNKVQGEIAFSGSLAGELGLGEGKNVTVDTIDVTTVQGAQESVAIVDAALKYVDSHRAELGAFQNRFNHAISNLDNINENVNASKSRIKDTDFAKETTQLTKTQILSQASSSILAQAKQAPNSALSLLGLEHHHHHH
modifications: DCpep6::4xE7deltaNLS::FlaB (DEF)
- NF-κB activity levels (FIG. 13) [1]: increased the activity in dose-dependent manners
- cellular uptake in bone marrow-derived dendritic cells (FIG. 14) [2]: concentration-dependent cellular uptake
- intracellular location (FIG. 15) [3]: located in the cytoplasm of CD11c^+ cells
- time to removal from the draining lymph nodes post administration [4]: ≤ 24 h
- tumor volume (FIG. 19) ([5]; among all administered groups): smallest
- survival (FIG. 18) ([5]; compared with E7ΔNLS (E)-administered group): significantly longer survival; also recorded: longest survival
- survival compared with HPV16 E7 CTL peptide+FlaB (E7 Pep+F) group (FIG. 18) [5, 12]: notably longer survival
- tumor volume compared with HPV16 E7 CTL peptide+FlaB (E7 Pep+F) group (FIG. 19) [5, 12]: remarkably much smaller
- expression of CD80 and CD86 on BMDC surface (FIG. 20) [6]: significantly enhanced expression
- tetramer-positive cells in peripheral blood (FIG. 22) ([7]; mice without tumors): remarkably high levels
- CTL epitope-specific tetramer-positive CD8+ cells in peripheral blood (FIG. 21) ([7]; tumor-bearing mice, compared with PBS, E and EF groups): significantly higher levels
- IFN-γ production (FIG. 24) ([8]; mice without tumors): significantly higher level
- IFN-γ production level in SPL and TDLNs (FIG. 23) ([8]; tumor-bearing mice, compared to PBS, E and EF): significantly enhanced
- survival and tumor volume effect in TLR5^−/− mice relative to wild-type mice (FIG. 25) ([9]; 20 μg, TLR5^−/− versus wild-type): significantly lower levels
- survival (FIG. 25) ([9]; TLR5^−/− mice, 20 μg subcutaneous peritumoral three times, compared to PBS group): significantly longer survival
- tumor volume (FIG. 25) ([9]; TLR5^−/− mice, 20 μg, compared to PBS group): decreased
- effects on tumor volume and survival (FIG. 25) [10]: abolished
- division index of CD8+ T cells (FIG. 26) ([11]; NLRC4-knockout (NLRC4^−/−) mice, 1 μg/mL): rather decreased
- division index of CD8+ T cells (FIG. 26) ([11]; wild-type (WT) mice BMDCs pulsed with 1 μg/mL for 24 hours, coculture 1:5 for 3 days): significantly enhanced
